Laboratory results: article PMC3824618

Target: T1, wild-type human cystathionine β-synthase, HIS-tagged, expressed in HEK-293 cells (human), P35520
T1 chain: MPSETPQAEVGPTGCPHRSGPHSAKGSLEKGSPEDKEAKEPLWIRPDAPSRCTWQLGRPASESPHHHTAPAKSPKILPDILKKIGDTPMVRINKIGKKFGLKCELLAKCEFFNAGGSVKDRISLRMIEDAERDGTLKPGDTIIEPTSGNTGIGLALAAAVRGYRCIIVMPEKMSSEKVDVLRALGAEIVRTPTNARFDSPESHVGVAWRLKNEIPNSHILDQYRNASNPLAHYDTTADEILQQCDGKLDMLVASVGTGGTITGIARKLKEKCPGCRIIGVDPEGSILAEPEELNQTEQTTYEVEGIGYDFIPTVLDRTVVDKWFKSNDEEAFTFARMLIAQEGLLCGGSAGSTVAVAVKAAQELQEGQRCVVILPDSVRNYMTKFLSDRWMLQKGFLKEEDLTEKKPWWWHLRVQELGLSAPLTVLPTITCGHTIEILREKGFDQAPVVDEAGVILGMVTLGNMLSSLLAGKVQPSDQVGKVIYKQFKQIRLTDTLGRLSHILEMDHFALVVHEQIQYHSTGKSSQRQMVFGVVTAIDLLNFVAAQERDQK
Assay: native gel or EMSA
Details: remark: other sources report otherwise

- stoichiometry N: 4
B1: wild-type human cystathionine β-synthase, HIS-tagged, expressed in HEK-293 cells, P35520 1-551 (enzyme)
chain: MPSETPQAEVGPTGCPHRSGPHSAKGSLEKGSPEDKEAKEPLWIRPDAPSRCTWQLGRPASESPHHHTAPAKSPKILPDILKKIGDTPMVRINKIGKKFGLKCELLAKCEFFNAGGSVKDRISLRMIEDAERDGTLKPGDTIIEPTSGNTGIGLALAAAVRGYRCIIVMPEKMSSEKVDVLRALGAEIVRTPTNARFDSPESHVGVAWRLKNEIPNSHILDQYRNASNPLAHYDTTADEILQQCDGKLDMLVASVGTGGTITGIARKLKEKCPGCRIIGVDPEGSILAEPEELNQTEQTTYEVEGIGYDFIPTVLDRTVVDKWFKSNDEEAFTFARMLIAQEGLLCGGSAGSTVAVAVKAAQELQEGQRCVVILPDSVRNYMTKFLSDRWMLQKGFLKEEDLTEKKPWWWHLRVQELGLSAPLTVLPTITCGHTIEILREKGFDQAPVVDEAGVILGMVTLGNMLSSLLAGKVQPSDQVGKVIYKQFKQIRLTDTLGRLSHILEMDHFALVVHEQIQYHSTGKSSQRQMVFGVVTAIDLLNFVAAQERDQK
